From the supplement of paper PMC6757056
± gives the standard deviation of the averaged measurements.

B1: library; a variant is named by its letters at N, in order (parent)
chain: GCUGUCACCGGUGCUUGGUACGUUAUAUUCAGCCGGUCUGAUGAGUCUNNNNNNAGACGAAACAGC

Tests used:
[1] = variants of: B1; test: FACS-Seq fitted mean relative fluorescence mCherry/BFP without ligand (log10 relative fluorescence); HEK293T overexpressing SLC46A1; higher = higher reporter protein expression; conditions: without (6R,S)-folinic acid; ligand present: no
Description: (§1)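 Hammerhead (sTRSV) ribozyme switch libraries with a ligand aptamer grafted on stem I and a randomized N4-6 loop II, cloned into the 3' UTR of mCherry and transiently transfected into HEK293T cells; RNA-Seq 72 h post transfection with ligand added 1 h before transfection; RNA read count / plasmid DNA read count normalized to the non-cleaving sTRSVctl (x100), log10; sequences with >100 DNA reads. FACS-Seq: lentiviral library sorted into 6 bins after 48 h ligand, log-normal fit mean of mCherry/BFP scaled to controls. Printed sequences are partial switch sequences.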

[2] = variants of: B1; test: normalized RNA/DNA level without ligand (relative to sTRSVctl = 100) (log10 (% of sTRSVctl)); HEK293T overexpressing SLC46A1; higher = less ribozyme self-cleavage, higher mRNA level; conditions: without (6R,S)-folinic acid; ligand present: no
Description: as §1

[3] = variants of: B1; test: FACS-Seq fitted mean relative fluorescence mCherry/BFP with ligand (log10 relative fluorescence); HEK293T overexpressing SLC46A1; ligand concentration (+) FACS-Seq: 6 mM; higher = higher reporter protein expression; conditions: with (6R,S)-folinic acid; ligand present: yes
Description: as §1

[4] = variants of: B1; test: normalized RNA/DNA level with ligand (relative to sTRSVctl = 100) (log10 (% of sTRSVctl)); HEK293T overexpressing SLC46A1; ligand concentration (+) RNA-Seq: 6 mM; higher = less ribozyme self-cleavage, higher mRNA level; conditions: with (6R,S)-folinic acid; ligand present: yes
Description: as §1

| Variant | FACS-Seq fitted mean (log10) [1] | normalized RNA/DNA level without ligand (log10) [2] | FACS-Seq fitted mean (log10) [3] | normalized RNA/DNA level with ligand (log10) [4] |
| --- | --- | --- | --- | --- |
| GCUGUCACCGGUGCUUGGUACGUUAUAUUCAGCCGGUCUGAUGAGUCUGAAAGAAGACGAAACAGC [GAAAGA] | 0.353 ± 0.015 | 2.011 ± 0.011 | 0.607 ± 0.25 | 2.04 ± 0.024 |
| GCUGUCACCGGUGCUUGGUACGUUAUAUUCAGCCGGUCUGAUGAGUCUGAAACUAGACGAAACAGC [GAAACU] | 0.175 ± 0.071 | 2.004 ± 0.0055 | 0.437 ± 0.016 | 2.001 ± 0.019 |
| GCUGUCACCGGUGCUUGGUACGUUAUAUUCAGCCGGUCUGAUGAGUCUUAAAAUAGACGAAACAGC [UAAAAU] | 0.0871 ± 0.034 | 1.941 ± 0.016 | 0.075 ± 0.078 | 1.97 ± 0.036 |
| GCUGUCACCGGUGCUUGGUACGUUAUAUUCAGCCGGUCUGAUGAGUCUUAAAAAAGACGAAACAGC [UAAAAA] | 0.254 ± 0.059 | 1.9232 ± 0.0015 | 0.164 ± 0.11 | 1.98 ± 0.024 |
| GCUGUCACCGGUGCUUGGUACGUUAUAUUCAGCCGGUCUGAUGAGUCUUAAAACAGACGAAACAGC [UAAAAC] | 0.386 ± 0.024 | 1.973 ± 0.0055 | 0.499 ± 0.15 | 1.98 ± 0.028 |
| GCUGUCACCGGUGCUUGGUACGUUAUAUUCAGCCGGUCUGAUGAGUCUUAAAAGAGACGAAACAGC [UAAAAG] | 0.335 ± 0.03 | 1.7583 ± 0.00058 | 0.493 ± 0.023 | 1.96 ± 0.049 |
| GCUGUCACCGGUGCUUGGUACGUUAUAUUCAGCCGGUCUGAUGAGUCUCAAACCAGACGAAACAGC [CAAACC] | 0.546 ± 0.013 | 2.024 ± 0.0088 | 0.377 ± 0.2 | 2.02 ± 0.038 |
| GCUGUCACCGGUGCUUGGUACGUUAUAUUCAGCCGGUCUGAUGAGUCUCAAACUAGACGAAACAGC [CAAACU] | 0.433 ± 0.064 | 2.01 ± 0.027 | 0.667 ± 0.16 | 2.01 ± 0.029 |
| GCUGUCACCGGUGCUUGGUACGUUAUAUUCAGCCGGUCUGAUGAGUCUAAAAAGAGACGAAACAGC [AAAAAG] | 0.431 ± 0.18 | 1.914 ± 0.0037 | 0.605 ± 0.12 | 2 ± 0.045 |
| GCUGUCACCGGUGCUUGGUACGUUAUAUUCAGCCGGUCUGAUGAGUCUAAAAACAGACGAAACAGC [AAAAAC] | 0.164 ± 0.051 | 1.985 ± 0.015 | -0.16 ± 0.076 | 1.99 ± 0.034 |
| GCUGUCACCGGUGCUUGGUACGUUAUAUUCAGCCGGUCUGAUGAGUCUAAAAAUAGACGAAACAGC [AAAAAU] | 0.39 ± 0.039 | 1.944 ± 0.011 | 0.512 ± 0.13 | 1.99 ± 0.029 |
| GCUGUCACCGGUGCUUGGUACGUUAUAUUCAGCCGGUCUGAUGAGUCUAAAAAAAGACGAAACAGC [AAAAAA] | 0.489 ± 0.019 | 1.948 ± 0.013 | 0.43 ± 0.029 | 1.97 ± 0.036 |
| GCUGUCACCGGUGCUUGGUACGUUAUAUUCAGCCGGUCUGAUGAGUCUUAAACGAGACGAAACAGC [UAAACG] | 0.324 ± 0.13 | 1.799 ± 0.016 | 0.717 ± 0.1 | 1.95 ± 0.032 |
| GCUGUCACCGGUGCUUGGUACGUUAUAUUCAGCCGGUCUGAUGAGUCUGAAAACAGACGAAACAGC [GAAAAC] | 0.181 ± 0.013 | 1.948 ± 0.0025 | 0.078 ± 0.11 | 1.98 ± 0.034 |
| GCUGUCACCGGUGCUUGGUACGUUAUAUUCAGCCGGUCUGAUGAGUCUGAAAAGAGACGAAACAGC [GAAAAG] | 0.162 ± 0.24 | 1.94 ± 0.0028 | -0.223 ± 0.13 | 2 ± 0.032 |
| GCUGUCACCGGUGCUUGGUACGUUAUAUUCAGCCGGUCUGAUGAGUCUGAAAAUAGACGAAACAGC [GAAAAU] | 0.553 ± 0.091 | 1.9868 ± 0.0018 | 0.647 ± 0.21 | 2.02 ± 0.022 |
| GCUGUCACCGGUGCUUGGUACGUUAUAUUCAGCCGGUCUGAUGAGUCUAAAACUAGACGAAACAGC [AAAACU] | 0.355 ± 0.07 | 2.024 ± 0.00081 | 0.358 ± 0.15 | 2.03 ± 0.035 |
| GCUGUCACCGGUGCUUGGUACGUUAUAUUCAGCCGGUCUGAUGAGUCUAAAACAAGACGAAACAGC [AAAACA] | 0.359 ± 0.036 | 1.988 ± 0.0088 | 0.304 ± 0.0079 | 2 ± 0.024 |
| GCUGUCACCGGUGCUUGGUACGUUAUAUUCAGCCGGUCUGAUGAGUCUAAAACGAGACGAAACAGC [AAAACG] | 0.631 ± 0.022 | 1.93 ± 0.0068 | 0.582 ± 0.16 | 1.99 ± 0.015 |
| GCUGUCACCGGUGCUUGGUACGUUAUAUUCAGCCGGUCUGAUGAGUCUCAAAACAGACGAAACAGC [CAAAAC] | 0.474 ± 0.076 | 1.9999 ± 0.0015 | 0.589 ± 0.49 | 1.99 ± 0.055 |
| GCUGUCACCGGUGCUUGGUACGUUAUAUUCAGCCGGUCUGAUGAGUCUCAAAAUAGACGAAACAGC [CAAAAU] | -0.131 ± 0.018 | 1.955 ± 0.0057 | -0.505 ± 0.1 | 1.98 ± 0.032 |
